Measurements from the supplement of paper PMC9112550, “Optimization of the antimicrobial peptide Bac7 by deep mutational scanning” (BMC Biology, 2022).

System: Escherichia coli TOP10
Test: shrunken log2 fold change of peptide-encoding DNA abundance (4.5 h post-induction vs induction); higher = less antimicrobial activity (less host growth inhibition)
Details: time post-induction: 4.5 h; library: site-saturation at positions 5, 18, 19, 20
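Note: peptides expressed intracellularly from a pBAD plasmid library in pooled LB shake-flask culture, induced with 0.3% L-arabinose, DNA abundance read by NGS, three biological replicates, DESeq2 with apeglm shrinkage.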

| Sequence | shrunken log2 fold change |
| --- | --- |
| RRIRIRPPRLPRPRPRPKVQPRP | -0.491 |
| RRIRARPPRLPRPRPRPSSTPRP | -0.0285 |
| RRIRMRPPRLPRPRPRPPANPRP | 1.17 |
| RRIRGRPPRLPRPRPRPIYSPRP | -0.05 |
| RRIRWRPPRLPRPRPRPEHQPRP | 0.263 |
| RRIRLRPPRLPRPRPRPDFEPRP | -0.0246 |
| RRIRWRPPRLPRPRPRPVWDPRP | 0.177 |
| RRIRDRPPRLPRPRPRPGNGPRP | 0.12 |
| RRIRIRPPRLPRPRPRPSHYPRP | -0.528 |
| RRIRYRPPRLPRPRPRPGENPRP | 0.00408 |
| RRIRSRPPRLPRPRPRPFKCPRP | -0.226 |
| RRIRERPPRLPRPRPRPNPCPRP | -0.226 |
| RRIRKRPPRLPRPRPRPTRSPRP | 0.831 |
| RRIRYRPPRLPRPRPRPSPQPRP | -0.195 |
| RRIRFRPPRLPRPRPRPDYFPRP | -0.167 |
| RRIRFRPPRLPRPRPRPGDFPRP | -0.209 |
| RRIRWRPPRLPRPRPRPMFIPRP | -0.378 |
| RRIRFRPPRLPRPRPRPRLIPRP | -0.261 |
| RRIRFRPPRLPRPRPRPFETPRP | -0.158 |
| RRIRHRPPRLPRPRPRPVQGPRP | 0.207 |
| RRIRNRPPRLPRPRPRPHQHPRP | -0.654 |
| RRIRSRPPRLPRPRPRPPEPPRP | 0.373 |
| RRIRLRPPRLPRPRPRPGCTPRP | -0.151 |
| RRIRFRPPRLPRPRPRPALYPRP | -0.155 |
| RRIRARPPRLPRPRPRPVPMPRP | 0.404 |

| Sequence | shrunken log2 fold change |
| --- | --- |
| RRIRMRPPRLPRPRPRPMQAPRP | 3.02 |
| RRIRIRPPRLPRPRPRPVYIPRP | -0.154 |
| RRIRCRPPRLPRPRPRPCMLPRP | -0.758 |
| RRIRARPPRLPRPRPRPTEYPRP | -0.103 |
| RRIRNRPPRLPRPRPRPYAPPRP | -0.702 |
| RRIRMRPPRLPRPRPRPGFWPRP | 0.836 |
| RRIRTRPPRLPRPRPRPNTPPRP | -0.17 |
| RRIRMRPPRLPRPRPRPVLNPRP | -0.232 |
| RRIRMRPPRLPRPRPRPRHAPRP | 0.698 |
| RRIRFRPPRLPRPRPRPPLEPRP | 0.288 |
| RRIRNRPPRLPRPRPRPNVHPRP | -0.309 |
| RRIRSRPPRLPRPRPRPFDIPRP | -0.639 |
| RRIRGRPPRLPRPRPRPRTDPRP | 1.06 |
| RRIRDRPPRLPRPRPRPVWYPRP | -0.134 |
| RRIRNRPPRLPRPRPRPSDGPRP | 0.0337 |
| RRIRFRPPRLPRPRPRPGAEPRP | 0.286 |
| RRIRLRPPRLPRPRPRPATLPRP | -0.12 |
| RRIRIRPPRLPRPRPRPVIDPRP | -0.0443 |
| RRIRFRPPRLPRPRPRPNQYPRP | -1.01 |
| RRIRMRPPRLPRPRPRPTDRPRP | 0.894 |
| RRIRIRPPRLPRPRPRPVYFPRP | -0.807 |
| RRIRYRPPRLPRPRPRPAISPRP | -0.149 |
| RRIRRRPPRLPRPRPRPYMEPRP | -0.0924 |
| RRIRMRPPRLPRPRPRPWNDPRP | -0.112 |
| RRIRGRPPRLPRPRPRPFFIPRP | 0.0612 |

| Sequence | shrunken log2 fold change |
| --- | --- |
| RRIRARPPRLPRPRPRPGKRPRP | 0.374 |
| RRIRERPPRLPRPRPRPNYEPRP | -0.182 |
| RRIRYRPPRLPRPRPRPYHTPRP | -0.0274 |
| RRIRPRPPRLPRPRPRPPLTPRP | 0.274 |
| RRIRRRPPRLPRPRPRPNGVPRP | 0.00234 |
| RRIRSRPPRLPRPRPRPHKWPRP | -0.296 |
| RRIRTRPPRLPRPRPRPHKRPRP | -0.0155 |
| RRIRTRPPRLPRPRPRPDDWPRP | 0.276 |
| RRIRDRPPRLPRPRPRPVYNPRP | -0.00379 |
| RRIRNRPPRLPRPRPRPNYHPRP | -0.801 |
| RRIRPRPPRLPRPRPRPPRYPRP | 0.237 |
| RRIRTRPPRLPRPRPRPESYPRP | -0.0242 |
| RRIRKRPPRLPRPRPRPKGTPRP | 0.00171 |
| RRIRFRPPRLPRPRPRPKQYPRP | -0.43 |
| RRIRRRPPRLPRPRPRPFQIPRP | -0.325 |
| RRIRGRPPRLPRPRPRPYKTPRP | -0.0831 |
| RRIRYRPPRLPRPRPRPKKRPRP | -0.11 |
| RRIRERPPRLPRPRPRPVTHPRP | -0.194 |
| RRIRRRPPRLPRPRPRPYIDPRP | -0.339 |
| RRIRVRPPRLPRPRPRPMFAPRP | -0.0323 |
| RRIRPRPPRLPRPRPRPWCAPRP | 0.208 |
| RRIRSRPPRLPRPRPRPYFYPRP | -0.695 |
| RRIRVRPPRLPRPRPRPNENPRP | -0.349 |
| RRIRSRPPRLPRPRPRPKCLPRP | 0.0157 |
| RRIRHRPPRLPRPRPRPQIYPRP | -0.137 |

| Sequence | shrunken log2 fold change |
| --- | --- |
| RRIRERPPRLPRPRPRPSTQPRP | -0.177 |
| RRIRERPPRLPRPRPRPNLCPRP | -0.13 |
| RRIRYRPPRLPRPRPRPCCQPRP | 0.0173 |
| RRIRQRPPRLPRPRPRPTRQPRP | 0.798 |
| RRIRPRPPRLPRPRPRPACHPRP | 0.111 |
| RRIRSRPPRLPRPRPRPNIPPRP | -0.492 |
| RRIRPRPPRLPRPRPRPMDDPRP | 0.00641 |
| RRIRNRPPRLPRPRPRPIRSPRP | -0.389 |
| RRIRYRPPRLPRPRPRPSPPPRP | -0.469 |
| RRIRSRPPRLPRPRPRPQGLPRP | 0.0641 |
| RRIRVRPPRLPRPRPRPYHKPRP | -0.0829 |
| RRIRYRPPRLPRPRPRPCMSPRP | -0.282 |
| RRIRWRPPRLPRPRPRPDFYPRP | -0.11 |
| RRIRNRPPRLPRPRPRPMMAPRP | -0.106 |
| RRIRQRPPRLPRPRPRPYPHPRP | -0.0795 |
| RRIRSRPPRLPRPRPRPNRPPRP | -0.0188 |
| RRIRHRPPRLPRPRPRPWWDPRP | -0.0461 |
| RRIRCRPPRLPRPRPRPTPHPRP | 0.821 |
| RRIRCRPPRLPRPRPRPHFWPRP | 0.125 |
| RRIRMRPPRLPRPRPRPTLGPRP | 0.685 |
| RRIRNRPPRLPRPRPRPTTEPRP | -0.257 |
| RRIRYRPPRLPRPRPRPGEFPRP | -0.35 |
| RRIRNRPPRLPRPRPRPIYTPRP | -0.288 |
| RRIRYRPPRLPRPRPRPGCRPRP | -0.0618 |
| RRIRWRPPRLPRPRPRPGGSPRP | 0.341 |

| Sequence | shrunken log2 fold change |
| --- | --- |
| RRIRYRPPRLPRPRPRPLPRPRP | 0.00472 |
| RRIRIRPPRLPRPRPRPYASPRP | -0.206 |
| RRIRPRPPRLPRPRPRPSMCPRP | -0.0117 |
| RRIRERPPRLPRPRPRPGCRPRP | 0.0043 |
| RRIRPRPPRLPRPRPRPEWIPRP | -0.0215 |
| RRIRLRPPRLPRPRPRPNGMPRP | -0.0765 |
| RRIRRRPPRLPRPRPRPGAQPRP | 0.352 |
| RRIRLRPPRLPRPRPRPGQFPRP | 0.16 |
| RRIRLRPPRLPRPRPRPNHCPRP | -0.132 |
| RRIRRRPPRLPRPRPRPKEPPRP | 0.293 |
| RRIRARPPRLPRPRPRPIVGPRP | -0.0201 |
| RRIRFRPPRLPRPRPRPCNHPRP | -0.41 |
| RRIRVRPPRLPRPRPRPRRSPRP | 0.349 |
| RRIRMRPPRLPRPRPRPCENPRP | 0.0192 |
| RRIRGRPPRLPRPRPRPGRGPRP | 0.773 |
| RRIRARPPRLPRPRPRPEFDPRP | 1.44 |
| RRIRARPPRLPRPRPRPMNTPRP | 0.0292 |
| RRIRTRPPRLPRPRPRPFQVPRP | -0.0305 |
| RRIRDRPPRLPRPRPRPNGTPRP | 0.00868 |
| RRIRYRPPRLPRPRPRPMLPPRP | -0.0473 |
| RRIRLRPPRLPRPRPRPWMGPRP | -0.363 |
| RRIRIRPPRLPRPRPRPCLFPRP | -0.639 |
| RRIRLRPPRLPRPRPRPQYGPRP | 0.0165 |
| RRIRKRPPRLPRPRPRPPNSPRP | 0.156 |
| RRIRQRPPRLPRPRPRPTQMPRP | 0.0693 |

| Sequence | shrunken log2 fold change |
| --- | --- |
| RRIRPRPPRLPRPRPRPQQEPRP | 0.0468 |
| RRIRNRPPRLPRPRPRPQRSPRP | 0.0667 |
| RRIRLRPPRLPRPRPRPTQTPRP | -0.0101 |
| RRIRGRPPRLPRPRPRPRQAPRP | 0.93 |
| RRIRFRPPRLPRPRPRPYVYPRP | -0.196 |
| RRIRLRPPRLPRPRPRPIPSPRP | -0.177 |
| RRIRPRPPRLPRPRPRPDILPRP | -0.51 |
| RRIRQRPPRLPRPRPRPLDNPRP | -0.151 |
| RRIRPRPPRLPRPRPRPNEAPRP | -0.151 |
| RRIRCRPPRLPRPRPRPKQWPRP | -0.0437 |
| RRIRERPPRLPRPRPRPPYAPRP | -0.208 |
| RRIRSRPPRLPRPRPRPRRDPRP | 0.297 |
| RRIRRRPPRLPRPRPRPQMHPRP | 0.354 |
| RRIRGRPPRLPRPRPRPTWNPRP | 0.359 |
| RRIRRRPPRLPRPRPRPIESPRP | 0.0332 |
| RRIRERPPRLPRPRPRPFKSPRP | -0.0568 |
| RRIRWRPPRLPRPRPRPVTSPRP | 0.112 |
| RRIRARPPRLPRPRPRPGTRPRP | 0.532 |
| RRIRDRPPRLPRPRPRPTFSPRP | 0.743 |
| RRIRARPPRLPRPRPRPKQRPRP | 0.558 |
| RRIRTRPPRLPRPRPRPDWKPRP | -0.0156 |
| RRIRYRPPRLPRPRPRPQYTPRP | -1.34 |
| RRIRCRPPRLPRPRPRPWVKPRP | -0.352 |
| RRIRVRPPRLPRPRPRPIRMPRP | -0.243 |
| RRIRKRPPRLPRPRPRPQTTPRP | 0.289 |
